Here are results for one molecule from paper PMC9890643.

The data set concerns the target apolipoprotein A-1 (ApoA1) (UniProt P02647 25-267). The data set can be described thus: electrochemical aptasensor.

Chain of apolipoprotein A-1 (ApoA1) (P02647 25-267): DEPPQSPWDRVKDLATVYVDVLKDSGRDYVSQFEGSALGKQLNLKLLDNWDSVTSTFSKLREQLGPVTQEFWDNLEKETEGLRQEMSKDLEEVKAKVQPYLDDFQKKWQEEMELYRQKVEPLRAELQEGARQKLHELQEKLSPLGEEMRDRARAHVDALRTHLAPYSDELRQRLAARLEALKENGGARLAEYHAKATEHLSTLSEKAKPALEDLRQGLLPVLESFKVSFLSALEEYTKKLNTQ

With CCTCGGCACGTTCTCAGTAGCGCTCGCTGGTCATCCCACA (ssDNA, 5'-thiol-C6) [ApoA1 thiolated aptamer], the binding result was “binds”.
